Assays:
HeLa Kyoto [1] = assay: solubility change mitosis vs G1/S (difference of NP-40 vs SDS log2 ratios) (log2 ratio difference); higher = more soluble in mitosis
HeLa Kyoto [2] = assay: solubility in G1/S (NP-40 vs SDS abundance) (log2 ratio); higher = more soluble; details: cell cycle stage: G1/S
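Wherever solubility change mitosis vs G1/S (difference of NP-40 vs SDS log2 ratios) is given: synchronized HeLa Kyoto cells (double thymidine block for G1/S, nocodazole release for mitosis), protein amounts in NP-40 versus SDS lysates quantified by mass spectrometry, three biological replicates.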
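Wherever solubility in G1/S (NP-40 vs SDS abundance) is given: HeLa Kyoto cells arrested at G1/S by double thymidine block, proteins quantified by TMT10plex mass spectrometry in mild NP-40 versus SDS extracts, three biological replicates.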

Sequence of LMTK2 (chain, as listed by the source): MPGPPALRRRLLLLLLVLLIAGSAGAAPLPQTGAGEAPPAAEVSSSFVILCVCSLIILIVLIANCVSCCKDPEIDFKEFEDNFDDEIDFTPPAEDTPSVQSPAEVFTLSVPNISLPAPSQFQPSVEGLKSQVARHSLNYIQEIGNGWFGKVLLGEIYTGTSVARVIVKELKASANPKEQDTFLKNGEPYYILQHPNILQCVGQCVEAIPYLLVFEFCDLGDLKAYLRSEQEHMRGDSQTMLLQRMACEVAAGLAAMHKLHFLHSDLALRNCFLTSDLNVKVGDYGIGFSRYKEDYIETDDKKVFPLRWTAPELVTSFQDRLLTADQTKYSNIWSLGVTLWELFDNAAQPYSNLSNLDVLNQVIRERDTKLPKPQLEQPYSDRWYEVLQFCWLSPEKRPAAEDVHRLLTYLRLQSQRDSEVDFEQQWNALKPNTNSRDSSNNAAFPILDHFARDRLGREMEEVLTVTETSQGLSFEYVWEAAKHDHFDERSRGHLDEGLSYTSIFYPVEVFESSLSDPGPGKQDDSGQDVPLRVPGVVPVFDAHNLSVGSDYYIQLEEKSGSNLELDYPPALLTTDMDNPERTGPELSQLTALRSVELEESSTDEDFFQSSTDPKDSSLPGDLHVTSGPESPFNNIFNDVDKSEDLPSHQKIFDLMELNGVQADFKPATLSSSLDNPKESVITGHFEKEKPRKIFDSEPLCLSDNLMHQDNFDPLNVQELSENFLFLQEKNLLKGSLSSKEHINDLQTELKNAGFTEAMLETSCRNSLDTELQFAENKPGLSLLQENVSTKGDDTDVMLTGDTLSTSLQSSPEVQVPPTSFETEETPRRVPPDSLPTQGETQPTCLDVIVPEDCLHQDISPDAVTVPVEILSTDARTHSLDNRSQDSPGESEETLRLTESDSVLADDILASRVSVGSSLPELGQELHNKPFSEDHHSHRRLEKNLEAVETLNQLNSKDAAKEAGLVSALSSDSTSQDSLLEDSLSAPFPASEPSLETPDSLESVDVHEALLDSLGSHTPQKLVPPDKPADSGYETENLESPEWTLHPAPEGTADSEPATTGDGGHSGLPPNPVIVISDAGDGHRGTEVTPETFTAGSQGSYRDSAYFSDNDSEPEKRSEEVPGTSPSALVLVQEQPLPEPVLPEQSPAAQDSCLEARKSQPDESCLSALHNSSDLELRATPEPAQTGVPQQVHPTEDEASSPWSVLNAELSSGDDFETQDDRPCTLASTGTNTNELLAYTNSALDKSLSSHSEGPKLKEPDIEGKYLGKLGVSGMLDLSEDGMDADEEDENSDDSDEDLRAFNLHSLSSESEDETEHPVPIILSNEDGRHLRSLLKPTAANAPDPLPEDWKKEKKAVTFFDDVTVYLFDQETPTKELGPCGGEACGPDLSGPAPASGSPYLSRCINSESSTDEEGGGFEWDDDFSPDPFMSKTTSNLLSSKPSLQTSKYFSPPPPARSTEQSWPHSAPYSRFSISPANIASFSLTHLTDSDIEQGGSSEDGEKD
Sequence of TFAP2C (chain, as listed by the source): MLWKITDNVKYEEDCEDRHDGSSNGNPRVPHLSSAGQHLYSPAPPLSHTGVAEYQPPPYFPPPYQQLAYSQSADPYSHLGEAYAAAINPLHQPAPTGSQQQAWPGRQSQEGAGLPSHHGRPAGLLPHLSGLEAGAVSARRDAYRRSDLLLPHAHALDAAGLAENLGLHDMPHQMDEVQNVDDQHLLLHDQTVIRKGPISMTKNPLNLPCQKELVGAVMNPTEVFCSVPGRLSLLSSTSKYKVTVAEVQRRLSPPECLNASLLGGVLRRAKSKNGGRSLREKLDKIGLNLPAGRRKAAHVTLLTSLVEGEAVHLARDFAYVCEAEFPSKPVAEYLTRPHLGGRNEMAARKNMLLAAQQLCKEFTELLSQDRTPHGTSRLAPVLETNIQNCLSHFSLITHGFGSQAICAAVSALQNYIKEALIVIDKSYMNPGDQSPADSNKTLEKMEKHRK

Substance	solubility change mitosis (log2) (HeLa Kyoto [1])	solubility in G1/S (log2) (HeLa Kyoto [2])
MPVSTSLHQDGSQERPVSLTSTTSSSGSSCDSRSAMEEPSSSEAPAKNGAGSLRSRHLPNSNNNSSSWLNVKGPLSPFNSRAAAGPAHHKLSYLGRVVREIVETERMYVQDLRSIVEDYLLKIIDTPGLLKPEQVSALFGNIENIYALNSQLLRDLDSCNSDPVAVASCFVERSQEFDIYTQYCNNYPNSVAALTECMRDKQQAKFFRDRQELLQHSLPLGSYLLKPVQRILKYHLLLQEIAKHFDEEEDGFEVVEDAIDTMTCVAWYINDMKRRHEHAVRLQEIQSLLINWKGPDLTTYGELVLEGTFRVHRVRNERTFFLFDKTLLITKKRGDHFVYKGNIPCSSLMLIESTRDSLCFTVTHYKHSKQQYSIQAKTVEEKRNWTHHIKRLILENHHATIPQKAKEAILEMDSYYPNRYRCSPERLKKAWSSQDEVSTNVRQGRRQSEPTKHLLRQLNEKARAAGMKGKGRRESESSRSSRRPSGRSPTSTEKRMSFESISSLPEVEPDPEAGSEQEVFSAVEGPSAEETPSDTESPEVLETQLDAHQGLLGMDPPGDMVDFVAAESTEDLKALSSEEEEEMGGAAQEPESLLPPSVLDQASVIAERFVSSFSRRSSVAQEDSKSSGFGSPRLVSRSSSVLSLEGSEKGLARHGSATDSLSCQLSPEVDISVGVATEDSPSVNGMEPPSPGCPVEPDRSSCKKKESALSTRDRLLLDKIKSYYENAEHHDAGFSVRRRESLSYIPKGLVRNSISRFNSLPRPDPEPVPPVGSKRQVGSRPTSWALFELPGPSQAVKGDPPPISDAEFRPSSEIVKIWEGMESSGGSPGKGPGQGQANGFDLHEPLFILEEHELGAITEESATASPESSSPTEGRSPAHLARELKELVKELSSSTQGELVAPLHPRIVQLSHVMDSHVSERVKNKVYQLARQYSLRIKSNKPVMARPPLQWEKVAPERDGKSPTVPCLQEEAGEPLGGKGKRKPVLSLFDYEQLMAQEHSPPKPSSAGEMSPQRFFFNPSAVSQRTTSPGGRPSARSPLSPTETFSWPDVRELCSKYASRDEARRAGGGRPRGPPVNRSHSVPENMVEPPLSGRVGRCRSLSTKRGRGGGEAAQSPGPLPQSKPDGGETLYVTADLTLEDNRRVIVMEKGPLPSPTAGLEESSGQGPSSPVALLGQVQDFQQSAECQPKEEGSRDPADPSQQGRVRNLREKFQALNSVG [PLEKHG3]	-0.239	-0.79
LMTK2	-0.217	-0.313
TFAP2C	0.119	-0.0214
MAALGVLESDLPSAVTLLKNLQEQVMAVTAQVKSLTQKVQAGAYPTEKGLSFLEVKDQLLLMYLMDLTHLILDKASGGSLQGHDAVLRLVEIRTVLEKLRPLDQKLKYQIDKLIKTAVTGSLSENDPLRFKPHPSNMMSKLSSEDEEEDEAEDDQSEASGKKSVKGVSKKYVPPRLVPVHYDETEAEREKKRLERAKRRALSSSVIRELKEQYSDAPEEIRDARHPHVTRQSQEDQHRINYEESMMVRLSVSKREKGRRKRANVMSSQLHSLTHFSDISALTGGTVHLDEDQNPIKKRKKIPQKGRKKKGFRRRR [NGDN]	0.93	-1.83
MEDGTPKHIIQMTGFKMEEKEALVKLLLKLDCTFIKSEKYKNCTHLIAERLCKSEKFLAACAAGKWILTKDYIIHSAKSGRWLDETTYEWGYKIEKDSRYSPQMQSAPKRWREELKRTGAPGAFHRWKVVLLVRTDKRSDSLIRVLEAGKANVILPKSSPSGITHVIASNARIKAEKEKDNFKAPFYPIQYLGDFLLEKEIQNDEDSQTNSVWTEHSNEETNKDFRKDAGFLEMKGALRETMYRTQKEMQNHEDVNVGSILIQHHKKEKFSGSSKDLKFVKMRNTFGSHTYENQKEIKKKDEDIQRSYTLRRKRKKGKESNCKKGVEHEKIKSTLRRHIYNRDQKEMKNSIFAEYAKESKAMAIKTDVDVVEIKNTLRKHIYRAQAVRYNCIRIDKQPVYNVEVKNAEFPRGVLNLIESLIEGHFFKEAIEELSTLQAHYIPPVCVLHALLENVLQDNIDTFSGRYFHILSALLHLHPPWKSPAMSRYYLELFQCPTCMKGAWSLVEVLIRSCLFNESFCHQISENIGSKVLHLTLLKFFFNLIESEVQHLSQKLYDWSDSQNLKITGKAMLLEIFWSGSETSGLLTKPVNMLLEWTIYSHKEKFKSNDVFKHELAYLLAGILGAAIDYWIFLGLKMGRNVMRHMSDDLGSYVSLSCDDFSSQELEIFICSFSSSWLQMFVAEAVFKKLCLQSSGSVSSEPLSLQKMVYSYLPALGKTGVLGSGKIQVSKKIGQRPCFDSQRTLLMLNGTKQKQVEGLPELLDLNLAKCSSSLKKLKKKSEGELSCSKENCPSVVKKMNFHKTNLKGETALHRACINNQVEKLILLLSLPGIDINVKDNAGWTPLHEACNYGNTVCVQEILQRCPEVDLLTQVDGVTPLHDALSNGHVEIGKLLLQHGGPVLLQQRNAKGELPLDYVVSPQIKEELFAITKIEDTVENFHAQAEKHFHYQQLEFGSFLLSRMLLNFCSIFDLSSEFILASKGLTHLNELLMACKSHKETTSVHTDWLLDLYAGNIKTLQKLPHILKELPENLKVCPGVHTEALMITLEMMCRSVMEFS [SLF1]	0.644	-0.991
MESKGASSCRLLFCLLISATVFRPGLGWYTVNSAYGDTIIIPCRLDVPQNLMFGKWKYEKPDGSPVFIAFRSSTKKSVQYDDVPEYKDRLNLSENYTLSISNARISDEKRFVCMLVTEDNVFEAPTIVKVFKQPSKPEIVSKALFLETEQLKKLGDCISEDSYPDGNITWYRNGKVLHPLEGAVVIIFKKEMDPVTQLYTMTSTLEYKTTKADIQMPFTCSVTYYGPSGQKTIHSEQAVFDIYYPTEQVTIQVLPPKNAIKEGDNITLKCLGNGNPPPEEFLFYLPGQPEGIRSSNTYTLTDVRRNATGDYKCSLIDKKSMIASTAITVHYLDLSLNPSGEVTRQIGDALPVSCTISASRNATVVWMKDNIRLRSSPSFSSLHYQDAGNYVCETALQEVEGLKKRESLTLIVEGKPQIKMTKKTDPSGLSKTIICHVEGFPKPAIQWTITGSGSVINQTEESPYINGRYYSKIIISPEENVTLTCTAENQLERTVNSLNVSAISIPEHDEADEISDENREKVNDQAKLIVGIVVGLLLAALVAGVVYWLYMKKSKTASKHVNKDLGNMEENKKLEENNHKTEA [ALCAM]	-0.0197	0.38
MEAEESEKAATEQEPLEGTEQTLDAEEEQEESEEAACGSKKRVVPGIVYLGHIPPRFRPLHVRNLLSAYGEVGRVFFQAEDRFVRRKKKAAAAAGGKKRSYTKDYTEGWVEFRDKRIAKRVAASLHNTPMGARRRSPFRYDLWNLKYLHRFTWSHLSEHLAFERQVRRQRLRAEVAQAKRETDFYLQSVERGQRFLAADGDPARPDGSWTFAQRPTEQELRARKAARPGGRERARLATAQDKARSNKGLLARIFGAPPPSESMEGPSLVRDS [ABT1]	0.803	-0.95
MENELPVPHTSSSACATSSTSGASSSSGCNNSSSGGSGRPTGPQISVYSGIPDRQTVQVIQQALHRQPSTAAQYLQQMYAAQQQHLMLQTAALQQQHLSSAQLQSLAAVQQASLVSNRQGSTSGSNVSAQAPAQSSSINLAASPAAAQLLNRAQSVNSAAASGIAQQAVLLGNTSSPALTASQAQMYLRAQMLIFTPTATVATVQPELGTGSPARPPTPAQVQNLTLRTQQTPAAAASGPTPTQPVLPSLALKPTPGGSQPLPTPAQSRNTAQASPAGAKPGIADSVMEPHKKGDGNSSVPGSMEGRAGLSRTVPAVAAHPLIAPAYAQLQPHQLLPQPSSKHLQPQFVIQQQPQPQQQQPPPQQSRPVLQAEPHPQLASVSPSVALQPSSEAHAMPLGPVTPALPLQCPTANLHKPGGSQQCHPPTPDTGPQNGHPEGVPHTPQRRFQHTSAVILQLQPASPPQQCVPDDWKEVAPGEKSVPETRSGPSPHQQAIVTAMPGGLPVPTSPNIQPSPAHETGQGIVHALTDLSSPGMTSGNGNSASSIAGTAPQNGENKPPQAIVKPQILTHVIEGFVIQEGAEPFPVGRSSLLVGNLKKKYAQGFLPEKLPQQDHTTTTDSEMEEPYLQESKEEGAPLKLKCELCGRVDFAYKFKRSKRFCSMACAKRYNVGCTKRVGLFHSDRSKLQKAGAATHNRRRASKASLPPLTKDTKKQPTGTVPLSVTAALQLTHSQEDSSRCSDNSSYEEPLSPISASSSTSRRRQGQRDLELPDMHMRDLVGMGHHFLPSEPTKWNVEDVYEFIRSLPGCQEIAEEFRAQEIDGQALLLLKEDHLMSAMNIKLGPALKIYARISMLKDS [PHC2]	0.555	-0.368
PRR14L	0.0491	-0.0161
MRDRLPDLTACRKNDDGDTVVVVEKDHFMDDFFHQVEEIRNSIDKITQYVEEVKKNHSIILSAPNPEGKIKEELEDLNKEIKKTANKIRAKLKAIEQSFDQDESGNRTSVDLRIRRTQHSVLSRKFVEAMAEYNEAQTLFRERSKGRIQRQLEITGRTTTDDELEEMLESGKPSIFTSDIISDSQITRQALNEIESRHKDIMKLETSIRELHEMFMDMAMFVETQGEMINNIERNVMNATDYVEHAKEETKKAIKYQSKARRKKWIIIAVSVVLVAIIALIIGLSVGK [STX2]	0.0333	0.137
TNRC18	-0.234	0.0268
SLC7A6	-0.122	-0.00617
MDLVGVASPEPGTAAAWGPSKCPWAIPQNTISCSLADVMSEQLAKELQLEEEAAVFPEVAVAEGPFITGENIDTSSDLMLAQMLQMEYDREYDAQLRREEKKFNGDSKVSISFENYRKVHPYEDSDSSEDEVDWQDTRDDPYRPAKPVPTPKKGFIGKGKDITTKHDEVVCGRKNTARMENFAPEFQVGDGIGMDLKLSNHVFNALKQHAYSEERRSARLHEKKEHSTAEKAVDPKTRLLMYKMVNSGMLETITGCISTGKESVVFHAYGGSMEDEKEDSKVIPTECAIKVFKTTLNEFKNRDKYIKDDFRFKDRFSKLNPRKIIRMWAEKEMHNLARMQRAGIPCPTVVLLKKHILVMSFIGHDQVPAPKLKEVKLNSEEMKEAYYQTLHLMRQLYHECTLVHADLSEYNMLWHAGKVWLIDVSQSVEPTHPHGLEFLFRDCRNVSQFFQKGGVKEALSERELFNAVSGLNITADNEADFLAEIEALEKMNEDHVQKNGRKAASFLKDDGDPPLLYDE [RIOK3]	-0.00535	0.0978
MTSAVVDSGGTILELSSNGVENQEESEKVSEYPAVIVEPVPSARLEQGYAAQVLVYDDETYMMQDVAEEQEVETENVETVEASVHSSNAHCTDKTIEAAEALLHMESPTCLRDSRSPVEVFVPPCVSTPEFIHAAMRPDVITETVVEVSTEESEPMDTSPIPTSPDSHEPMKKKKVGRKPKTQQSPISNGSPELGIKKKPREGKGNTTYLWEFLLDLLQDKNTCPRYIKWTQREKGIFKLVDSKAVSKLWGKHKNKPDMNYETMGRALRYYYQRGILAKVEGQRLVYQFKDMPKNIVVIDDDKSETCNEDLAGTTDEKSLERVSLSAESLLKAASSVRSGKNSSPINCSRAEKGVARVVNITSPGHDASSRSPTTTASVSATAAPRTVRVAMQVPVVMTSLGQKISTVAVQSVNAGAPLITSTSPTTATSPKVVIQTIPTVMPASTENGDKITMQPAKIITIPATQLAQCQLQTKSNLTGSGSINIVGTPLAVRALTPVSIAHGTPVMRLSMPTQQASGQTPPRVISAVIKGPEVKSEAVAKKQEHDVKTLQLVEEKPADGNKTVTHVVVVSAPSAIALPVTMKTEGLVTCEK [ELF2]	0.0877	0.284
